# Assay results reported in the supplement of paper PMC10065799, “High-throughput profiling of sequence recognition by tyrosine kinases and SH2 domains using bacterial peptide display” (eLife, 2023).
# Columns and labels:
# AncSZ = test: phosphorylation enrichment, bacterial display (enrichment ratio); higher = better substrate or ligand; peptides without Tyr show the background
# EPHB1 = EPHB1 (UniProt P54762); test: as above
# EPHB2 = EPHB2 (UniProt P29323); test: as above
# FGFR1 = FGFR1 (UniProt P11362); test: as above
# FGFR1, sequence (P11362 whole entry, looked up): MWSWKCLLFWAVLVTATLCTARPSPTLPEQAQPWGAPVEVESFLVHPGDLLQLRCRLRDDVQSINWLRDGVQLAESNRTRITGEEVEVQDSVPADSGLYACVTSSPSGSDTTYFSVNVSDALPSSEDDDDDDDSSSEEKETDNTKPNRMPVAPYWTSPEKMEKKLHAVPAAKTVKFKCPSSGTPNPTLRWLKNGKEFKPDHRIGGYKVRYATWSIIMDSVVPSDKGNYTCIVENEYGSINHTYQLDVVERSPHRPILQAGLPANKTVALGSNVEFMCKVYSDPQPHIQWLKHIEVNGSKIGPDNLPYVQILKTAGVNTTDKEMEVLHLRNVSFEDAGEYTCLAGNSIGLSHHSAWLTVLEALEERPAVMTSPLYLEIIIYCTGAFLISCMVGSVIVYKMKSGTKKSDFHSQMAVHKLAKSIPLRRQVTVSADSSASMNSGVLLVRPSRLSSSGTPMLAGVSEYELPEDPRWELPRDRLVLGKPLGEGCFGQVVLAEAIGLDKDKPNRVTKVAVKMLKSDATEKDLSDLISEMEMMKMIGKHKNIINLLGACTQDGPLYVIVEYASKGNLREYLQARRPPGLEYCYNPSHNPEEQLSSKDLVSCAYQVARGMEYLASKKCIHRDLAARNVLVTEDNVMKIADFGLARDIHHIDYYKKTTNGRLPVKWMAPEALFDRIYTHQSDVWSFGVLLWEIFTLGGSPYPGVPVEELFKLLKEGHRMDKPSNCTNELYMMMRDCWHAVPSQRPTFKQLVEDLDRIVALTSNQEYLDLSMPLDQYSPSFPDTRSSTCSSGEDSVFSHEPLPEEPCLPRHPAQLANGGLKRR
# FGFR3 = FGFR3 (UniProt P22607); test: as above
# FGFR3, sequence (P22607 whole entry, looked up): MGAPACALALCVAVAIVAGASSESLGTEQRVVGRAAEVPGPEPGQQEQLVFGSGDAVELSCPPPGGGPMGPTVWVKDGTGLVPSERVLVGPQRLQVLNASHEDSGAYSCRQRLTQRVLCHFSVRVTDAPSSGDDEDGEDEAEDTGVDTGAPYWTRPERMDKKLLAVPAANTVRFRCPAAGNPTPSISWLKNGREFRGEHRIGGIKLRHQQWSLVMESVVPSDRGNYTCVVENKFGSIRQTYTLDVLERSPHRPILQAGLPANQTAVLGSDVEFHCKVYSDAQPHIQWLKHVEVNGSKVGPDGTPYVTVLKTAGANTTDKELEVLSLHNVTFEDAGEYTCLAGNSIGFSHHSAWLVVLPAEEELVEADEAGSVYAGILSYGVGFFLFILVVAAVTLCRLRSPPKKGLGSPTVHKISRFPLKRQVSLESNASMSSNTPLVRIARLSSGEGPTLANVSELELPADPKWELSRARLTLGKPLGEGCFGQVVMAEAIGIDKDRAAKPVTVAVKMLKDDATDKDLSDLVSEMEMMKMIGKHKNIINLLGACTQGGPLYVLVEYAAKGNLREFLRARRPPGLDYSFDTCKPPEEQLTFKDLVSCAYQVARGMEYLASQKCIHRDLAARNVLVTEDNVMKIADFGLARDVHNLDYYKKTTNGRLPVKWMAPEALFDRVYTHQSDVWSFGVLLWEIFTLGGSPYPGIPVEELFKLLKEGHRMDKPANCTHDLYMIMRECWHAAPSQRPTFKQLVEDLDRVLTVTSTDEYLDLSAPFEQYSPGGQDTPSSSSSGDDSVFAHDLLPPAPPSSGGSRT
# Fer (mouse) = test: as above
# Fes = Fes (UniProt P07332); test: as above
# Fyn = Fyn (UniProt P06241); test: as above
# Fyn, sequence (P06241 whole entry, looked up): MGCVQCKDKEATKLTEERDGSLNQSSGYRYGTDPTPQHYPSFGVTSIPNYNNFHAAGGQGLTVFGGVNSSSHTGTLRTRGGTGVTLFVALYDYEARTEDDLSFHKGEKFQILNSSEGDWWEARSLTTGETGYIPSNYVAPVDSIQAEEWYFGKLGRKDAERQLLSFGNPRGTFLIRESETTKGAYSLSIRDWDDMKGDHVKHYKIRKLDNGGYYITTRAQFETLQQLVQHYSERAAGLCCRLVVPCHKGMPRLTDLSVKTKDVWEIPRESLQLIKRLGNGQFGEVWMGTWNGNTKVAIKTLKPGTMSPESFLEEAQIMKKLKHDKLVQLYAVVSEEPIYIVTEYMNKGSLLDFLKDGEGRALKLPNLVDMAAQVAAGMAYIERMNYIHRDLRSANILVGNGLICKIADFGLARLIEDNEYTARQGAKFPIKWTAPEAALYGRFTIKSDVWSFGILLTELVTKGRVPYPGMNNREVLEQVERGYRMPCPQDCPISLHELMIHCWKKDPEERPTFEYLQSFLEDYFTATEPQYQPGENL
# Hck = Hck (UniProt P08631); test: as above
# Hck, sequence (P08631 whole entry, looked up): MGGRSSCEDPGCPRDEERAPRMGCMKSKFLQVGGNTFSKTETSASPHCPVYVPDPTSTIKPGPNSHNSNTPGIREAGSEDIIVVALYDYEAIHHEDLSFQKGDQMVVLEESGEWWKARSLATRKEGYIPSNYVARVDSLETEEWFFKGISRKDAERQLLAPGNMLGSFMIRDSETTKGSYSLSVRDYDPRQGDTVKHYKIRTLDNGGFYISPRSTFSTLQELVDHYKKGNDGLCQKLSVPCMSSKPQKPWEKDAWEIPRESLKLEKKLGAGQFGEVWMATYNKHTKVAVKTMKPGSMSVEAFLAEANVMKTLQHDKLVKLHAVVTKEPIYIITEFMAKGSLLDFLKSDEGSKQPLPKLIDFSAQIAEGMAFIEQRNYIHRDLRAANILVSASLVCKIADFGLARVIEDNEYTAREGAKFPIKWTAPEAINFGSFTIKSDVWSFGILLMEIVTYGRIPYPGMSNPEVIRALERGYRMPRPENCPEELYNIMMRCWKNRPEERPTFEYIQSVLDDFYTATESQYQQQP
# Jak2 = Jak2 (UniProt O60674); test: as above
# Jak2, sequence (O60674 whole entry, looked up): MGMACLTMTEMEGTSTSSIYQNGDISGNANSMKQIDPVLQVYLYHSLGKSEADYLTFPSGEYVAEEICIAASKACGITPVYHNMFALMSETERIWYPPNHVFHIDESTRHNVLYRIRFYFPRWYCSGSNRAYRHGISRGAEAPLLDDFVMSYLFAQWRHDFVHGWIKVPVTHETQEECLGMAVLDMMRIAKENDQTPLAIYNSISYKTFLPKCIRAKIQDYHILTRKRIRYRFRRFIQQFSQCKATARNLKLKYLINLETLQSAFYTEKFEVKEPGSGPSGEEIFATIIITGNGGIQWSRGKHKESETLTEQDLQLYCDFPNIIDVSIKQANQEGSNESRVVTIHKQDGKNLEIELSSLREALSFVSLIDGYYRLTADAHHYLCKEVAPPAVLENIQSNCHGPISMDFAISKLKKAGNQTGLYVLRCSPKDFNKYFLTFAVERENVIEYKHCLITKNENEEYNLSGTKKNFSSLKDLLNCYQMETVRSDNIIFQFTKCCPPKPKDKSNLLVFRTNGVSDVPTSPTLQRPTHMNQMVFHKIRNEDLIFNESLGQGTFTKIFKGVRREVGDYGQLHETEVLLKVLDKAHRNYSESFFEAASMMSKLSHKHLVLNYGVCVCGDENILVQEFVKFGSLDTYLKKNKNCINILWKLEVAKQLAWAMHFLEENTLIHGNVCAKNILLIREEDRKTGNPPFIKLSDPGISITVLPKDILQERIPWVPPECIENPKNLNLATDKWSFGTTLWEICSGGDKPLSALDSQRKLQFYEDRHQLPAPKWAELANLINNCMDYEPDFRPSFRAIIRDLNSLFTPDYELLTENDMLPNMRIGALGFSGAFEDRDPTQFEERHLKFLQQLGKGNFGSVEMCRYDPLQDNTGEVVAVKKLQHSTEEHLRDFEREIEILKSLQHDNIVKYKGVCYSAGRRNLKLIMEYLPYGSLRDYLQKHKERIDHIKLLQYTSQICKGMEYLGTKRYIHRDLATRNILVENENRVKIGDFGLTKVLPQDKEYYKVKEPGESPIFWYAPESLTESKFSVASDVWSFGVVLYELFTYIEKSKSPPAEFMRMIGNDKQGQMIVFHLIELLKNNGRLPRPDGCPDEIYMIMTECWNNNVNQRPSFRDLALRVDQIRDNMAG
# MERTK = MERTK (UniProt Q12866); test: as above
# c-Abl (mouse) = test: as above
# c-Src = test: as above
# Grb2 SH2 = Grb2 SH2 (UniProt P62993); test: SH2 binding enrichment of the phosphorylated peptide, bacterial display (enrichment ratio); higher = better substrate or ligand; peptides without Tyr show the background
# Grb2 SH2, sequence (P62993 whole entry, looked up): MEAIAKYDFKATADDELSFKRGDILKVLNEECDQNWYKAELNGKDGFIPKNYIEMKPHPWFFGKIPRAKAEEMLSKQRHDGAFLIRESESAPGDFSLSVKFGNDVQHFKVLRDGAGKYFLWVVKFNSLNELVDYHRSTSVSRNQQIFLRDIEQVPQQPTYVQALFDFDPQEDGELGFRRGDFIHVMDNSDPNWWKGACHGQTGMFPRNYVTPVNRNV
# SHP2-C SH2 = test: as above
# c-Src SH2 = test: as above
# 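Throughout, for SH2 binding enrichment of the phosphorylated peptide, bacterial display: peptide library displayed on the E. coli surface as eCPX fusions, selected cells deep-sequenced, score is each peptide's frequency after selection divided by its frequency in the input.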
# 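Throughout, for phosphorylation enrichment, bacterial display: 11-residue human phosphosite peptides and single-mutation variants displayed on the E. coli surface, counted by deep sequencing, each peptide's frequency after selection divided by its frequency in the unselected input library; frequency after pTyr selection over input frequency; kinase dosed for 20-30% of maximal phosphorylation in three min.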
# EPHB1, sequence (P54762 whole entry, looked up): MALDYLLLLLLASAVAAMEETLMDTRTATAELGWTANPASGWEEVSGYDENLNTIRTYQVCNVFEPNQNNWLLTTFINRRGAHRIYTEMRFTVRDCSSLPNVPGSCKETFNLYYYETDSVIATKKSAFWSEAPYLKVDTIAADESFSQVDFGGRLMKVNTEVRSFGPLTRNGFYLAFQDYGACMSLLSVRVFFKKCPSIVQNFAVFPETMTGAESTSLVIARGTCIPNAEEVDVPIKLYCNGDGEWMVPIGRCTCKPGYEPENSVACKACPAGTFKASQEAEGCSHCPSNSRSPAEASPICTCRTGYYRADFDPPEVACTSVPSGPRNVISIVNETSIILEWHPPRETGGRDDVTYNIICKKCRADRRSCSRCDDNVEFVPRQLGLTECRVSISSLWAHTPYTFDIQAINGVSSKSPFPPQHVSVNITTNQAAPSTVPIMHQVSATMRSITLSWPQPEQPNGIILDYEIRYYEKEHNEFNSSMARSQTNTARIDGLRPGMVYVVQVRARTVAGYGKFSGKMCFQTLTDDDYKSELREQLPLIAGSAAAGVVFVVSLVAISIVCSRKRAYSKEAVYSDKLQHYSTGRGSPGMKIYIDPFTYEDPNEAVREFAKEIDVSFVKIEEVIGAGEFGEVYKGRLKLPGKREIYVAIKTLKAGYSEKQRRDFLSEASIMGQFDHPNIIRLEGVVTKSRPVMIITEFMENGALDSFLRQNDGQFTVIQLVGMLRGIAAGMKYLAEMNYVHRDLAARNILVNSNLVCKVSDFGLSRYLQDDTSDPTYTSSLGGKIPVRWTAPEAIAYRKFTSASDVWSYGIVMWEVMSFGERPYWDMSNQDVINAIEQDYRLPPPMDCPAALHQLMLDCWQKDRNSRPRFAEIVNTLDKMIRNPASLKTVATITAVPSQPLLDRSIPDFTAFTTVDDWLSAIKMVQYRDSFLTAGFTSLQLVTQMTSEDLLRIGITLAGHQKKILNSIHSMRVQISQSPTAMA
Sequence,phosphorylation enrichment (AncSZ),phosphorylation enrichment (EPHB1),phosphorylation enrichment (EPHB2),phosphorylation enrichment (FGFR1),phosphorylation enrichment (FGFR3),phosphorylation enrichment (Fer (mouse)),phosphorylation enrichment (Fes),phosphorylation enrichment (Fyn),phosphorylation enrichment (Hck),phosphorylation enrichment (Jak2),phosphorylation enrichment (MERTK),phosphorylation enrichment (c-Abl (mouse)),phosphorylation enrichment (c-Src),SH2 binding enrichment (Grb2 SH2),SH2 binding enrichment (SHP2-C SH2),SH2 binding enrichment (c-Src SH2)
IRDENYGEGSS [ACO2_Y665_G661R],0.917,0.364,0.422,0.437,0.559,0.588,0.936,0.421,0.925,0.733,0.46,0.639,0.481,0.685,1.01,0.532
IRTDAYVWAMT [RPE65_Y89_R91W],1.07,0.573,0.6,0.613,0.75,0.554,1.11,0.446,0.517,0.904,0.413,0.724,0.372,0.835,0.698,0.62
ISDNACQFMLT [MYH7_Y162_Y162C_YF],0.946,0.712,0.615,0.588,0.877,0.51,1.21,0.597,0.606,1.04,0.448,0.696,0.448,0.692,0.687,0.419
ISIFHYAKGQP [MPZ_Y82],1.04,0.69,0.481,0.456,0.68,0.434,1.03,0.463,0.466,0.855,0.379,0.644,0.35,0.874,0.739,0.7
ISITPYPAILH [IFT80_Y588],1.2,0.578,0.484,0.433,0.676,0.37,1.24,0.409,0.465,1.2,0.36,0.865,0.414,0.616,0.547,0.385
ISTAGYSFPEL [EDAR_Y406_I408F],0.886,0.526,0.523,0.457,0.532,0.425,0.878,0.437,0.461,1.03,0.698,0.737,0.487,0.854,0.957,6.7
ITNLLYHVVSW [GBA_Y412_G416S],1.46,8.05,5.99,9.38,7.83,5.89,1.35,3.23,4.84,3.17,7.13,3.22,3.8,1.25,1.15,0.944
ITVCDYTNPCT [MYD88_Y276],1.66,0.583,0.691,0.521,0.719,0.395,1.02,0.401,0.415,1.11,0.426,0.651,1.26,0.968,0.603,0.701
IVAREYFSEAD [CAMK2A_Y106_YF],1.09,0.6,0.657,0.508,0.752,0.563,1.16,0.538,0.5,0.965,0.472,0.728,0.491,0.9,0.867,0.566
IVFVICDEVVK [SLC25A1_Y297_Y297C],1.15,0.652,0.555,0.484,0.833,0.498,1.25,0.442,0.501,1.01,0.333,0.55,0.393,1.12,1.03,0.734
IVTLKYPIEHG [ACTB_Y69_L65V],0.698,0.434,0.412,0.523,0.702,0.489,0.76,0.483,0.466,0.74,0.481,0.871,0.422,0.77,0.807,0.45
KACKHYLTTRT [ZBTB5_Y118],0.712,0.46,0.507,0.448,0.64,0.534,0.964,0.505,0.501,0.978,0.563,0.859,0.659,1.7,1.4,1.43
KAESWYQTKYE [KRT75_Y342_E337K],0.763,0.399,0.524,0.367,0.491,0.57,0.698,0.485,0.459,0.471,0.433,0.396,0.457,0.805,0.648,0.479
KCCCIYEKPRA [PPP1R11_Y64],2.23,1.07,1.06,0.523,0.814,8.2,1.46,1.95,2.67,1.34,1.65,7.54,3.6,0.879,0.705,0.478
KDHPDYKFQRR [SOX10_Y171_P175R_YF],0.696,0.338,0.387,0.338,0.423,0.612,0.631,0.321,0.382,0.615,0.389,0.667,0.446,1,0.701,0.736
KEAALYPHLPP [SQSTM1_Y383],0.67,0.414,0.373,0.459,0.649,0.42,0.796,0.391,0.362,1.04,0.391,0.669,0.48,0.763,0.708,0.474
KFACSYTPVKA [FLNB_Y708_T703K_YF],0.811,0.521,0.502,0.497,0.579,0.462,0.895,0.472,0.509,0.747,0.481,0.577,0.459,0.862,1.99,0.978

Sequence,phosphorylation enrichment (AncSZ),phosphorylation enrichment (EPHB1),phosphorylation enrichment (EPHB2),phosphorylation enrichment (FGFR1),phosphorylation enrichment (FGFR3),phosphorylation enrichment (Fer (mouse)),phosphorylation enrichment (Fes),phosphorylation enrichment (Fyn),phosphorylation enrichment (Hck),phosphorylation enrichment (Jak2),phosphorylation enrichment (MERTK),phosphorylation enrichment (c-Abl (mouse)),phosphorylation enrichment (c-Src),SH2 binding enrichment (Grb2 SH2),SH2 binding enrichment (SHP2-C SH2),SH2 binding enrichment (c-Src SH2)
KFLENYFDLKK [MMP3_Y41_YF],1.06,1.94,0.751,2.51,1.75,0.467,1.27,0.448,0.543,1.26,0.446,0.816,0.499,0.886,0.709,0.604
KFLENYLNCLL [PLD2_Y169_R172C_YF],1.23,0.748,0.676,0.759,0.859,0.532,1.17,0.497,0.474,1.23,0.461,0.91,0.572,1.45,1.61,1.25
KGEDFYCVTCP [FHL1_Y149_H154P],1.47,0.586,0.589,1.15,1.04,2.65,1.01,4.22,2.96,1.33,6.08,0.646,3.64,1.01,0.644,1.04
KGLMPYGQPRP [SRRT_Y798_Q793K],0.444,0.365,0.371,0.388,0.366,0.363,0.727,0.36,0.325,0.426,0.527,0.455,0.378,0.923,0.986,0.558
KGNMFYENSFA [EGFR_Y113_R108K_YF],0.76,0.503,0.463,0.332,0.535,1.8,0.705,0.412,0.449,0.751,0.484,0.645,0.45,19.5,1,2.98
KHTLSYVDVGT [SDHA_Y629],0.703,0.573,0.42,0.724,0.589,0.392,0.685,0.348,0.431,0.552,0.295,0.53,0.283,0.817,0.967,0.759
KIIRWYVSSEG [ANK2_Y3907_R3906W],1.31,0.69,0.679,0.55,0.784,0.543,1.34,0.51,0.498,1.2,0.415,0.747,0.455,1.19,1.51,1.18
KIKGWYEKCEP [KRT26_Y119],0.996,0.594,0.573,0.515,0.779,0.541,1.21,0.442,0.527,1.07,0.446,0.786,0.47,0.935,0.693,1.26
KKLHEYNTQFQ [PIK3R1_Y452],0.55,0.323,0.385,0.322,0.366,0.389,0.541,0.39,0.367,0.43,0.348,0.477,0.42,1,0.86,0.592
KKRSSYGNSSD [SELENOK_Y52_R50S],0.57,0.4,0.462,0.386,0.476,0.422,0.508,0.438,0.475,0.523,0.556,0.489,0.515,0.686,0.609,0.441
KLIETYSSKNF [PLP1_Y50_F51S_YF],0.654,0.769,0.618,0.446,0.46,0.388,0.996,0.504,0.519,0.59,0.401,0.588,0.451,0.713,0.472,0.422
KLKEKYQKDIA [HMGB1_Y155_E156Q],0.57,0.454,0.588,0.565,1.21,0.522,0.996,0.465,0.487,1.47,0.557,1.24,0.582,1.24,1.91,1.11
KLKNAYEESLE [MYH7_Y1488],0.982,0.491,0.445,0.65,0.612,0.454,1.14,0.429,0.384,0.908,0.452,0.743,0.472,0.531,0.761,0.654
KLSFSYGRALQ [ALDOB_Y302],0.9,0.548,0.483,0.519,0.642,0.413,0.994,0.388,0.46,0.847,0.407,0.694,0.417,1.04,0.955,0.592
KMGNIYRTEFG [MRPL3_Y265_YF],0.535,0.337,0.34,0.482,0.514,0.393,0.5,0.536,0.488,0.448,0.477,0.471,0.532,0.672,0.652,0.485
KNKKDYYDMYE [SLC26A3_Y526],1.13,1.13,0.738,6.27,4.04,0.543,0.851,0.601,0.73,0.67,0.408,0.579,0.579,0.962,0.937,1.03
